Ends that are not written are not given here. * marks the point of attachment. Biotin = O=C1N[C@H]2[C@H](CS[C@H]2CCCCC(=O)*)N1

The chains are these.
T1: GST-TAX-IP40 PDZ domain fusion protein (human, UniProt Q6B4M5 150-252 (rat entry))
T1 construct: also called TAX40; not shown: glutathione S-transferase encoded by vector pGEX-3X (Pharmacia)
T1 sequence: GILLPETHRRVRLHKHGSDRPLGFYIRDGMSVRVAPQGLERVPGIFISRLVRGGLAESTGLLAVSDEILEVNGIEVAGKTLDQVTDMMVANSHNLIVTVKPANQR

T2: MINT3 PDZ-GST fusion protein
T2 construct: Order of GST and PDZ part and limits not seen in the excerpts
T2 chain: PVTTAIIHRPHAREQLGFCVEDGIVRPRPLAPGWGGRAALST

T3: GST-CASK PDZ domain fusion protein (Homo sapiens, UniProt O14936 486-575)
T3 construct: also called Homo sapiens CASK protein
T3 sequence: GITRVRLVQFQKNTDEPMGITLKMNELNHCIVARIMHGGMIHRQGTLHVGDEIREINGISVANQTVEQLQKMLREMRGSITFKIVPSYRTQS

T4: K559 PDZ-GST fusion protein (Homo sapiens (Human), UniProt Q9Y6V0 4489-4593)
T4 construct: Order of GST and PDZ part and limits not seen in the excerpts
T4 sequence: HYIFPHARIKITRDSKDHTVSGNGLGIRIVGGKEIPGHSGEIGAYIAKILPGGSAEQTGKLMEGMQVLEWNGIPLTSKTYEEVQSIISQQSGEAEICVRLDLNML

T5: GST-PTN-4 PDZ domain fusion protein (Homo sapiens (Human), UniProt P29074 517-605)
T5 construct: also called protein-tyrosine phosphatase meg1; not shown: glutathione S-transferase encoded by vector pGEX-3X (Pharmacia)
T5 sequence: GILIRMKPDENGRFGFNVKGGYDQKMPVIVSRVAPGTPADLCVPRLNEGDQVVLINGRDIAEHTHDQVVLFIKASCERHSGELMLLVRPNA

T6: GST-cytohesin binding protein PDZ domain fusion protein (Homo sapiens (Human), UniProt O60759 74-165)
T6 construct: also called CBP; not shown: glutathione S-transferase encoded by vector pGEX-3X (Pharmacia)
T6 sequence: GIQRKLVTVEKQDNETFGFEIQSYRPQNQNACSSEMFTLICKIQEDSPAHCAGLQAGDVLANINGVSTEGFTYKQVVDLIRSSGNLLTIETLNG

T7: GST-LIM protein PDZ domain fusion protein (Human, UniProt Q96HC4 2-85)
T7 construct: also called Human LIM protein; not shown: glutathione S-transferase encoded by vector pGEX-3X (Pharmacia)
T7 sequence: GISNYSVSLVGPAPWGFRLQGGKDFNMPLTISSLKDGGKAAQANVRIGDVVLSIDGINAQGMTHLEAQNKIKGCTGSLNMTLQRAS

T8: X11β PDZ-GST fusion protein (Rattus norvegicus (Rat), UniProt O35431 560-745)
T8 construct: Order of GST and PDZ part and limits not seen in the excerpts
T8 chain: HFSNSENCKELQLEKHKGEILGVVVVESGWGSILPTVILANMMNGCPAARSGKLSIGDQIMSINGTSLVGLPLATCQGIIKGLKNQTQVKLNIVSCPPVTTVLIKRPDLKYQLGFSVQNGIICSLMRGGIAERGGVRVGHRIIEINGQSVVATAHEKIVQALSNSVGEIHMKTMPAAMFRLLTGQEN

T9: GST-RGS12 PDZ domain fusion protein (human, UniProt O14924 17-85)
T9 construct: also called human regulator of G-protein signalling 12; not shown: glutathione S-transferase encoded by vector pGEX-3X (Pharmacia)
T9 sequence: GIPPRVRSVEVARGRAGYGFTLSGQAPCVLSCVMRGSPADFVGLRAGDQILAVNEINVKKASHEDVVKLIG

T10: GST-PDZK1 fusion protein (PDZ domains 2-4) (Homo sapiens, UniProt Q5T2W1 134-457)
T10 construct: not shown: glutathione S-transferase encoded by vector pGEX-3X (Pharmacia)
T10 sequence: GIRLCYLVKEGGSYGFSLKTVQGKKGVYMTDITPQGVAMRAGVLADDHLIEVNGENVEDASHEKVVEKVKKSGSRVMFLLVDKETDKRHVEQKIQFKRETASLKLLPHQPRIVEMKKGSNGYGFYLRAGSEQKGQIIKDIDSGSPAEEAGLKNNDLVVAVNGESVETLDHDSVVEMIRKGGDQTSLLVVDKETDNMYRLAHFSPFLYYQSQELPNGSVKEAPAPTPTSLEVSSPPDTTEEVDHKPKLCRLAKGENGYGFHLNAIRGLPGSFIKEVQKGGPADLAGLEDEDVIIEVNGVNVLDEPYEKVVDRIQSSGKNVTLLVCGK

T11: GST-MPP1 PDZ domain fusion protein (Homo sapiens (Human), UniProt Q00013 67-152)
T11 construct: also called p55; 55 Kd erythrocyte membrane protein; not shown: glutathione S-transferase encoded by vector pGEX-3X (Pharmacia)
T11 sequence: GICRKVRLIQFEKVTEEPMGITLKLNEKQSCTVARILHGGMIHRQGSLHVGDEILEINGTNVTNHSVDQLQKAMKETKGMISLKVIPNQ

T12: GST-mouse syntenin fusion protein (Mus musculus, UniProt O08992 108-286)
T12 construct: also called Mus musculus Syntenin; not shown: glutathione S-transferase encoded by vector pGEX-3X (Pharmacia)
T12 chain: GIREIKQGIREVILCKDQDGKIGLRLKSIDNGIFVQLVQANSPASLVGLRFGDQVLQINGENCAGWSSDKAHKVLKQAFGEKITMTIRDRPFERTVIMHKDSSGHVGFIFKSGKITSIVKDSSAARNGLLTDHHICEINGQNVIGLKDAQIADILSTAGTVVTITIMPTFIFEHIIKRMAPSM

B1: VCAM1 C-terminal peptide AA17L, biotinylated (peptide)
peptide: Biotin-ARKANMKGSYSLVEAQKSKV
notes: also called CD106
B2: CD3n C-terminal peptide AA4L, biotinylated (peptide)
peptide: Biotin-SVFSIPTLWSPWPPSSSSQL
notes: also called CD3η; CD3-eta
B3: BLR-1 C-terminal peptide AA45L, biotinylated (peptide)
peptide: Biotin-PSWRRSSLSESENATSLTTF
notes: also called CXCR5
B4: CDW128B (IL8RB) C-terminal peptide AA29.2L, biotinylated (peptide)
peptide: Biotin-KDSRPSFVGSSSGHTSTTL
notes: also called CDW128E (IL8RB)
B5: LPAP C-terminal peptide AA30L, biotinylated (peptide)
peptide: Biotin-AWDDSARAAGGQGLHVTAL
B6: KV1.3 C-terminal peptide AA33L, biotinylated (peptide)
peptide: Biotin-TTNNNPNSAVNIKKIFTDV
B7: Spectrin (beta) C-terminal peptide AA32L, biotinylated (peptide)
peptide: Biotin-SFPPCGHRENVPGQSLVSFV
notes: Marked (S), sticky; also called Spectrin beta (S); Spectrin β

T13 sequence (Q92743 other isoform, or with tags, fused parts or gaps limits assumed): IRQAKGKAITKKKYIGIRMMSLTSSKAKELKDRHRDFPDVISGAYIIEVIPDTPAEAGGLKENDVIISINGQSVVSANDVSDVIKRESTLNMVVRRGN

The first assay addresses T13, NSP PDZ-GST fusion protein (Homo sapiens (Human), UniProt Q92743 370-466).
T13 construct: The label NSP is not explained in the excerpts
Put plainly: A/G assays.
In the case of B1, the binding result was “no binding”.
For B2, the binding result is recorded as “no binding”.
As to B3, the binding result is “no binding”.
As to B4, the binding result is “no binding”.
Turning to B5, the binding result is recorded as “no binding”.
As to B6, the binding result is reported as “no binding”.

For the next assay, the target named is T1, GST-TAX-IP40 PDZ domain fusion protein. Put plainly: A/G assays.
Regarding B1, the binding result was “no binding”.
B2: the binding result is reported as “no binding”.
For the molecule B3, the binding result is on record as “no binding”.
Turning to B4, the binding result is “no binding”.
B5: the binding result was “no binding”.
On to B6, for which the binding result is reported as “no binding”.
Turning to B7, the binding result was “no binding”.

A further assay addresses T2, MINT3 PDZ-GST fusion protein. Put plainly: A/G assays.
Take B1: the binding result is “no binding”.
B2: the binding result is “no binding”.
As to B3, the binding result is reported as “no binding”.
The same measure, in the same setting: the same measure for B4: “no binding”; for B5: “no binding”; for B6: “no binding”.

Another assay has as its target T3, GST-CASK PDZ domain fusion protein. Put plainly: A/G assays.
Consider B1, for which the binding result was “no binding”.
As to B2, the binding result is “no binding”.
Same read-out and setting: the same measure for B3: “no binding”.
Consider B4, for which the binding result is “no binding”.
Turning to B5, the binding result is recorded as “no binding”.
On the same count and under the same terms, next, B6: “no binding”; B7: “no binding”.

Another assay deals with T4, K559 PDZ-GST fusion protein. Put plainly: A/G assays.
With B1, the binding result was “no binding”.
Same read-out and setting: next, B2: “no binding”.
On the same count and under the same terms, next, B3: “no binding”; B4: “no binding”; B5: “no binding”.
As to B6, the binding result was “no binding”.
For the molecule B7, the binding result is recorded as “no binding”.

The target of another assay is T5, GST-PTN-4 PDZ domain fusion protein. Put plainly: A/G assays.
Consider B1, for which the binding result is “no binding”.
Take B2: the binding result was “no binding”.
The same measure, in the same setting: next, B3: “no binding”; B4: “no binding”.
Turning to B5, the binding result is listed as “no binding”.
Regarding B6, the binding result is on record as “no binding”.

The next assay has as its target T6, GST-cytohesin binding protein PDZ …. Put plainly: A/G assays.
B1: the binding result is recorded as “no binding”.
As for B2, the binding result is recorded as “no binding”.
On to B3, for which the binding result is on record as “no binding”.
Consider B4, for which the binding result is reported as “no binding”.
Consider B5, for which the binding result is on record as “no binding”.
B6: the binding result is given as “no binding”.

A further assay concerns the target T7, GST-LIM protein PDZ domain fusion …. Put plainly: A/G assays.
Turning to B1, the binding result was “no binding”.
For B2, the binding result is “no binding”.
On to B3, for which the binding result is on record as “no binding”.
For the molecule B4, the binding result is “no binding”.
Same read-out and setting: the same measure for B5: “no binding”.
On to B6, for which the binding result is “no binding”.
B7: the binding result is “no binding”.

A further assay deals with T14, NOS1 PDZ-GST fusion protein (Homo sapiens (Human), UniProt P29475 11-100).
T14 construct: Order of GST and PDZ part and limits not seen in the excerpts
T14 sequence (P29475 11-100 limits assumed): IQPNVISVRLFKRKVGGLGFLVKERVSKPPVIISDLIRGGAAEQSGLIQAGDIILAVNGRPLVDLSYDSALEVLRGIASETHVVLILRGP
Put plainly: A/G assays.
As to B1, the binding result is reported as “no binding”.
Regarding B2, the binding result was “no binding”.
As for B3, the binding result is “no binding”.
For B4, the binding result is on record as “no binding”.
As to B6, the binding result is recorded as “no binding”.

The target in a further assay is T8, X11β PDZ-GST fusion protein. The assay is described as follows: A/G assays.
Take B1: the binding result is on record as “no binding”.
As to B2, the binding result is “no binding”.
Regarding B3, the binding result is listed as “no binding”.
With B4, the binding result is given as “no binding”.
On to B5, for which the binding result is “no binding”.
The same measure, in the same setting: next, B6: “no binding”; B7: “no binding”.

The target of the next assay is T9, GST-RGS12 PDZ domain fusion protein. Put plainly: A/G assays.
Take B1: the binding result is given as “no binding”.
On the same count and under the same terms, the same measure for B2: “no binding”; for B3: “no binding”.
Turning to B5, the binding result is “no binding”.
With B7, the binding result is “no binding”.

The next assay addresses T10, GST-PDZK1 fusion protein (PDZ domains …). Put plainly: A/G assays.
Take B1: the binding result is recorded as “no binding”.
For B2, the binding result is reported as “no binding”.
For B4, the binding result is listed as “no binding”.
As to B5, the binding result is listed as “no binding”.
Consider B6, for which the binding result was “no binding”.
As to B7, the binding result is on record as “no binding”.

In another assay the target is T11, GST-MPP1 PDZ domain fusion protein. The assay is described as follows: A/G assays.
On to B2, for which the binding result is “no binding”.
Regarding B3, the binding result is “no binding”.
For the molecule B4, the binding result is on record as “no binding”.
Regarding B5, the binding result is “no binding”.
On to B6, for which the binding result is “no binding”.

Another assay deals with T12, GST-mouse syntenin fusion protein. Put plainly: A/G assays.
As for B1, the binding result was “no binding”.
On to B2, for which the binding result was “no binding”.
On to B3, for which the binding result was “no binding”.
Take B4: the binding result is given as “no binding”.
Same read-out and setting: next, B5: “no binding”; B6: “no binding”.
For B7, the binding result is given as “no binding”.
